Laboratory results published in the supplement of paper PMC9876800.

System: peptide library, one residue held at a place counted from the S/T acceptor
Assay: relative phosphorylation of the sub-library (ratio to the mean residue at this position); Pediculus humanus corporis; higher = residue favoured
Summary of the method: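 Each biotinylated degenerate peptide sub-library fixed one residue at one position around a central Ser/Thr and was incubated with a purified recombinant kinase, a human or orthologue construct, in 384-well plates. The 90 min reactions, under kinase-specific conditions, contained 50 μM peptide and 50 μM ATP spiked with γ-32P-ATP. Phosphorylation was read by phosphorimaging spots on streptavidin membranes and quantifying them by densitometry. Relative sub-library phosphorylation expresses each value as a ratio to the mean residue at that position.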

Chain of PINK1, construct: aa126-end (E0W1I1 126-575, looked up): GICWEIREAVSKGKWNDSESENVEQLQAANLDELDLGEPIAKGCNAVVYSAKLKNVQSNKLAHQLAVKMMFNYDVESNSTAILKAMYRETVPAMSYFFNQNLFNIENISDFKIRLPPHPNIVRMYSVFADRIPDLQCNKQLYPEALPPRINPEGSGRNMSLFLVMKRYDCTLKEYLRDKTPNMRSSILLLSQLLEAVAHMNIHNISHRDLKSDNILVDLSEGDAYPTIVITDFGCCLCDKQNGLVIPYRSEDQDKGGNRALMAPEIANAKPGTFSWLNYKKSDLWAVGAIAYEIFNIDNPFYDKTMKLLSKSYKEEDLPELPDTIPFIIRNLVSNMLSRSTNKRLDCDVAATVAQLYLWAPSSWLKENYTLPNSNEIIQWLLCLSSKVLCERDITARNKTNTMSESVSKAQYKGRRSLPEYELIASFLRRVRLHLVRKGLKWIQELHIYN

PINK1, construct: aa126-end (from UniProt E0W1I1)
relative phosphorylation
Conditions | at +1 | at +2 | at +3 | at +4 | at -1 | at -2 | at -3 | at -4 | at -5
A fixed | 0.566 | 1.09 | 0.757 | 0.761 | 1.01 | 0.871 | 0.867 | 0.921 | 1.04
D fixed | 0.454 | 0.704 | 0.585 | 0.547 | 0.982 | 0.416 | 1.11 | 1.49 | 1.67
E fixed | 0.292 | 0.655 | 0.509 | 0.54 | 1.22 | 0.781 | 0.81 | 1.81 | 1.48
F fixed | 0.496 | 1.06 | 1.11 | 0.954 | 0.612 | 1.25 | 1.43 | 1.01 | 1.21
G fixed | 1.94 | 0.875 | 0.873 | 1.02 | 0.812 | 0.416 | 0.579 | 0.946 | 0.806
H fixed | 0.954 | 1.11 | 1.15 | 1.04 | 0.945 | 0.84 | 0.964 | 1.25 | 1.09
I fixed | 0.55 | 0.712 | 0.657 | 0.789 | 0.604 | 1.55 | 0.774 | 0.696 | 0.863
K fixed | 1.59 | 1 | 1.41 | 1.4 | 0.952 | 0.828 | 0.387 | 0.596 | 0.754
L fixed | 0.517 | 0.76 | 0.676 | 0.802 | 1.14 | 0.907 | 2.14 | 0.739 | 0.889
M fixed | 0.626 | 0.982 | 0.832 | 0.902 | 1.23 | 2.75 | 1.57 | 0.804 | 0.923
N fixed | 2.33 | 1.02 | 1.17 | 0.858 | 1.52 | 0.589 | 0.694 | 1.18 | 0.888
P fixed | 2.36 | 1.41 | 1.06 | 1.08 | 0.419 | 0.316 | 0.429 | 0.63 | 0.878
Q fixed | 0.786 | 1 | 0.957 | 0.983 | 1.72 | 1.06 | 0.609 | 0.831 | 0.733
R fixed | 2.05 | 1.57 | 2.21 | 2.15 | 1.58 | 1.02 | 0.815 | 0.676 | 0.75
V fixed | 0.474 | 0.805 | 0.737 | 0.692 | 0.716 | 0.838 | 0.441 | 0.595 | 0.806
W fixed | 0.455 | 1.03 | 1.14 | 1.47 | 0.772 | 1.55 | 1.74 | 1.48 | 1.17
Y fixed | 0.548 | 1.2 | 1.17 | 1.01 | 0.775 | 1.03 | 1.65 | 1.35 | 1.04
pThr fixed | 0.442 | 0.775 | 0.7 | 0.556 | 0.306 | 0.5 | 0.537 | 1.01 | 1.67
pTyr fixed | 0.458 | 1.66 | 0.834 | 0.71 | 1.09 | 1.06 | 3.15 | 1.66 | 1.26
